Molecular target: sdAb1 (NB07) (Artificial sequence)
Experiment: MST; negative control; p86 says only weak interaction in phage ELISA (FIG. 4)
Settings: G4

sdAb1 (NB07) (Artificial sequence), sequence (chain, as listed by the source): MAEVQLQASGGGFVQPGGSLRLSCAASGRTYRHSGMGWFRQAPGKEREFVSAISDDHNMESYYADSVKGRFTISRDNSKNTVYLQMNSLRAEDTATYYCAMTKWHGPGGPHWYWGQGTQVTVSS

Binder: CTGGGAGGAGCTGGGGGAGGAGA (structured_DNA) [HBV pre-core promoter G-quadruplex (WT)]
- binding result: no binding
